Assay [1] deals with FGFR3 EC+TM-(GGS)5-YFP / FGFR3 EC+TM-(GGS)5-mCherry (human).
In assay [2] the target is EC+TM (A374I-G375I-S378I) FGFR3 mutant (human).
The target in assay [3] is FGFR1 EC+TM-(GGS)5-YFP / FGFR1 EC+TM-(GGS)5-mCherry (human).
Assay [4] concerns the target A391E EC+TM FGFR3 construct (human).
Assay [5] has as its target EC+TM (L377I-G380I-A391I) FGFR3 mutant (human).
The target of assay [6] is full-length FGFR3 (human FGFR3 IIIc) fused to YFP or mCherry (human) (UniProt P22607).
Sequence of UniProt P22607 (P22607 23-806): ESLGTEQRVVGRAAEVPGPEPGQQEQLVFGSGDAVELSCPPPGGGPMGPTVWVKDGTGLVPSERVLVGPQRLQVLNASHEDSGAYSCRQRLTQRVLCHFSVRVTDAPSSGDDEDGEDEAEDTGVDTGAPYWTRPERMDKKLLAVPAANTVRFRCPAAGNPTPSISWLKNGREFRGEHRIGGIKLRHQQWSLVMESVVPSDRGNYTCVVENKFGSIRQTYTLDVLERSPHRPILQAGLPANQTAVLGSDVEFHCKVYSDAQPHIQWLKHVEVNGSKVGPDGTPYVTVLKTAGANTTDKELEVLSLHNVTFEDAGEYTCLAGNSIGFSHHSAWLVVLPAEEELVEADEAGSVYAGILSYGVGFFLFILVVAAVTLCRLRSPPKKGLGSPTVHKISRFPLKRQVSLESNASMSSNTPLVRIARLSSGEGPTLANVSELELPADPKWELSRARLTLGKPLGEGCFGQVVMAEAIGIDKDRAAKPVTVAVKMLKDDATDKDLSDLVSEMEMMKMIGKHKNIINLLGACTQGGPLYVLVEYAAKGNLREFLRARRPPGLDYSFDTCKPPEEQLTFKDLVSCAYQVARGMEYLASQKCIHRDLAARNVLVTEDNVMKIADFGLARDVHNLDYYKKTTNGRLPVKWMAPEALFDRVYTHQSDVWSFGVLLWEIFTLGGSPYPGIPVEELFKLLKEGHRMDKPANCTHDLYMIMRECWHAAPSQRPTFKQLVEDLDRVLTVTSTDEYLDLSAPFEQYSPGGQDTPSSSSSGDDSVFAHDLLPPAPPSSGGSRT

In assay [1], “human fgf1 (from UniProt P05230 16-155) (ligand)” showed an intrinsic FRET of the EC+TM FGFR3 dimer (QI-FRET in vesicles) at saturating fgf1 (5 μg ml^−1) of 0.55. For the same substance, in assay [2], the intrinsic FRET of the EC+TM FGFR3 A374I-G375I-S378I dimer (QI-FRET in vesicles) at saturating fgf1 worked out at 0.63. Moreover, the intrinsic FRET of the EC+TM FGFR1 dimer (QI-FRET in vesicles) at saturating fgf1 (5 μg ml^−1) in assay [3] worked out at 0.55. In assay [4], the intrinsic FRET of the EC+TM FGFR3 A391E dimer (QI-FRET in vesicles) at saturating fgf1 is 0.75. In assay [5], this substance showed an intrinsic FRET of the EC+TM FGFR3 L377I-G380I-A391I dimer (QI-FRET in vesicles) at saturating fgf1 of 0.52. For the same substance, the fold increase of full-length FGFR3 phosphorylation (western blot, anti-phospho-Tyr) at saturating fgf1 over no ligand in assay [6] lay in the range of 1.5 to 3 fold.

Substance “human fgf2 (from UniProt P09038 143-288) (ligand)” came in with an intrinsic FRET of the EC+TM FGFR3 dimer (QI-FRET in vesicles) at saturating fgf2 (5 μg ml^−1) in assay [1] of 0.72. The substance further had an intrinsic FRET of the EC+TM FGFR3 A374I-G375I-S378I dimer (QI-FRET in vesicles) at saturating fgf2 in assay [2] of 0.74. The substance further yielded an intrinsic FRET of the EC+TM FGFR1 dimer (QI-FRET in vesicles) at saturating fgf2 (5 μg ml^−1) in assay [3] of 0.73. The same substance yielded an intrinsic FRET of the EC+TM FGFR3 A391E dimer (QI-FRET in vesicles) at saturating fgf2 in assay [4] of 0.78. In addition, the intrinsic FRET of the EC+TM FGFR3 L377I-G380I-A391I dimer (QI-FRET in vesicles) at saturating fgf2 in assay [5] worked out at 0.53. Also, in assay [6], the fold increase of full-length FGFR3 phosphorylation (western blot, anti-phospho-Tyr) at saturating fgf2 over no ligand lay in the range of 2 to 4 fold.

The record behind these values is publication PMC4725768.
